Test: Precipitation of insulin glargine on addition to PBS/BSA mixture simulating the subcutaneous medium, centrifugation, RP-HPLC assay of supernatant
Format: physicochemical
Conditions: co-polyamino acid 1/insulin glargine/prandial insulin 75/25 composition added to 2 ml PBS/BSA
Experimental: The PBS/BSA mixture simulates the composition of the subcutaneous medium.
Centrifugation at 4000 rpm is carried out in order to separate the precipitate from the supernatant.
(§1) The PBS/BSA mixture simulates the composition of the subcutaneous medium. A precipitate appears.
as §1
This composition is added to 2 ml of PBS containing 20 mg/ml of BSA (bovine serum albumin). The PBS/BSA mixture simulates the composition of the subcutaneous medium. A precipitate appears. Centrifugation at 4000 rpm is carried out in order to separate the precipitate from the supernatant. […]
The PBS/BSA mixture simulates the composition of the subcutaneous medium. A precipitate appears. Centrifugation at 4000 rpm is carried out in order to separate the precipitate from the supernatant.
as §1

Substance: Human insulin (ActRapid ®): commercial solution of human insulin at 100 IU/ml
- Precipitation of insulin glargine: yes
